Reference: IntAct's records for PubMed 20818336

B1: Myocardin-related transcription factor A (Mus musculus), Q8K4J6 (parent)
chain: MTLLEPEMLMMAVQSVLQLKLQQRRTREELVSQGIMPPLKSPAAFHEQRRSLERARTEDYLKRKIRSRPERAELVRMHILEETSAEPSLQAKQLKLKRARLADDLNEKIAQRPGPMELVEKNILPVESSLKEAIIVGQVNYPKVADSSSFDEDSSDALSPEQPASHESQGSVPSPLESRVSDPLPSATSISPTQVLSQLPMAPDPGETLFLAEQPPLPPAPLLPPSLANGSIVPTAKPAPTLIKQSQPKSASEKSQRSKKAKELKPKVKKLKYHQYIPPDQKQDKGAPAMDSSYAKILQQQQLFLQLQILNQQQQQQQQQHYNYQAILPAPPKPSAETPGSSAPTPSRSLSTSSSPSSGTPGPSGLARQSSTALAAKPGALPANLDDMKVAELKQELKLRSLPVSGTKTELIERLRAYQDQVSPAPGAPKAPATTSVLSKAGEVVVAFPAALLSTGSALVTAGLAPAEMVVATVTSNGMVKFGSTGSTPPVSPTPSERSLLSTGDENSTPGDAFGEMVTSPLTQLTLQASPLQIVKEEGARAASCCLSPGARAELEGLDKDQMLQEKDKQIEELTRMLQQKQQLVELLRLQLEQQKRAQQPAPASSPVKRESGFSSCQLSCQPQGSAHAFGSGLVVPTTNHGDTQAPAPESPPVVVKQEAGPPEPDLAPSSQLLLGSQGTSFLKRVSPPTLVTDSTGTHLILTVTNKSADGPGLPAGSPQQPLSQPGSPAPGPPAQMDLEHPPQPPFATPTSLLKKEPPGYEETVTQQPKQQENGSSSQHMDDLFDILIQSGEISADFKEPPSLPGKEKSPPAAAAYGPPLTPQPSPLSELPQAAPPPGSPTLPGRLEDFLESSTGLPLLTSGHEGPEPLSLIDDLHSQMLSSSAILDHPPSPMDTSELHFAPEPSSGMGLDLAVGHLDSMDWLELSSGGPVLSLAPLSTAAPSLFSMDFLDGHDLQLHWDSCL
B2: Importin subunit alpha-3 (Homo sapiens), O00629 (parent)
chain: MADNEKLDNQRLKNFKNKGRDLETMRRQRNEVVVELRKNKRDEHLLKRRNVPHEDICEDSDIDGDYRVQNTSLEAIVQNASSDNQGIQLSAVQAARKLLSSDRNPPIDDLIKSGILPILVHCLERDDNPSLQFEAAWALTNIASGTSEQTQAVVQSNAVPLFLRLLHSPHQNVCEQAVWALGNIIGDGPQCRDYVISLGVVKPLLSFISPSIPITFLRNVTWVMVNLCRHKDPPPPMETIQEILPALCVLIHHTDVNILVDTVWALSYLTDAGNEQIQMVIDSGIVPHLVPLLSHQEVKVQTAALRAVGNIVTGTDEQTQVVLNCDALSHFPALLTHPKEKINKEAVWFLSNITAGNQQQVQAVIDANLVPMIIHLLDKGDFGTQKEAAWAISNLTISGRKDQVAYLIQQNVIPPFCNLLTVKDAQVVQVVLDGLSNILKMAEDEAETIGNLIEECGGLEKIEQLQNHENEDIYKLAYEIIDQFFSSDDIDEDPSLVPEAIQGGTFGFNSSANVPTEGFQF
partner: B1 chain

Variants of: B1
Settings: with ima3_human KPNA4, O00629

effect of a mutation on the interaction	Variant
disrupting interaction strength	K62A;R63A;K64A;K95A;L96A;K97A
decreasing interaction strength	K95A;L96A;K97A
decreasing interaction strength	K62A;R63A;K64A

Variants of: B1
Settings: with imb1_human KPNB1, Q14974
Sequence of imb1_human KPNB1, Q14974 (Q14974 whole entry): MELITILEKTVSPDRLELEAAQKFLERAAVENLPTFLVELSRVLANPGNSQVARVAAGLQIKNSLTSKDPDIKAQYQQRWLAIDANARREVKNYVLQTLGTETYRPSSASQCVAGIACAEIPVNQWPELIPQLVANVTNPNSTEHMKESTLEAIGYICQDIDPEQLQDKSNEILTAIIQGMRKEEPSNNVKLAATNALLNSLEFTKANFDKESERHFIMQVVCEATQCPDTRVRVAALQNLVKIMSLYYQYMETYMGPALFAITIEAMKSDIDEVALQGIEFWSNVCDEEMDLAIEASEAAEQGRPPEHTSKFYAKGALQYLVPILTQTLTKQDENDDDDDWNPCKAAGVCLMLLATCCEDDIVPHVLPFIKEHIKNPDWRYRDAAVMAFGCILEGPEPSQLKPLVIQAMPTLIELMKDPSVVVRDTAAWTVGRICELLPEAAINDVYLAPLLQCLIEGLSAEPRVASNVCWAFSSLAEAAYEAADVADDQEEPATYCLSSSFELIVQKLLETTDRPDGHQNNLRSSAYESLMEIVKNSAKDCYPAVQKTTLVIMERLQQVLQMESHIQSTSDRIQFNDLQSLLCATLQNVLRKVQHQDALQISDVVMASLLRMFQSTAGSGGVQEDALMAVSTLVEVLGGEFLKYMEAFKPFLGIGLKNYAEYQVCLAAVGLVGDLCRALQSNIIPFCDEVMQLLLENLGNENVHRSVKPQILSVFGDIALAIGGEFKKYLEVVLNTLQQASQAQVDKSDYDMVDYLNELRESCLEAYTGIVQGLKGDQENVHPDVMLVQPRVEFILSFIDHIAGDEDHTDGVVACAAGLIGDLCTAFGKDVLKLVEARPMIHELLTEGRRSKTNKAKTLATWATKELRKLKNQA

effect of a mutation on the interaction	Variant
disrupting interaction strength	K95A;L96A;K97A
decreasing interaction strength	K62A;R63A;K64A

Variants of: B2
Settings: with mrtfa_mouse Mrtfa

effect of a mutation on the interaction	Variant
decreasing interaction strength	W179A;N183A
decreasing interaction strength	W390A;N394A
decreasing interaction strength	W179A;N183A;W390A;N394A
